Measured values reported in the supplement of paper PMC5998384.

Tests used:
[1] = tested on: HeLa Kyoto; experiment: thermal stability score vs G1/S (z-score of summed log2 fold changes over temperatures); higher = more thermally stable than in G1/S
[2] = tested on: HeLa Kyoto; experiment: solubility in G1/S (NP-40 vs SDS abundance) (log2 ratio); higher = more soluble; conditions: cell cycle stage: G1/S
[3] = tested on: HeLa Kyoto; experiment: melting temperature (median over replicates), in situ; higher = more thermally stable
[4] = tested on: HeLa Kyoto; experiment: solubility change mitosis vs G1/S (difference of NP-40 vs SDS log2 ratios) (log2 ratio difference); higher = more soluble in mitosis
[5] = cell cycle stage: early G1 (4.5 h after nocodazole release)
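Throughout, for melting temperature (median over replicates), in situ: HeLa Kyoto cells synchronized by double thymidine or nocodazole block, proteins quantified by TMT10plex mass spectrometry, three independent biological replicates.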
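Throughout, for solubility change mitosis vs G1/S (difference of NP-40 vs SDS log2 ratios): synchronized HeLa Kyoto cells (double thymidine block for G1/S, nocodazole release for mitosis), protein amounts in NP-40 versus SDS lysates quantified by mass spectrometry, three biological replicates.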
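Throughout, for solubility in G1/S (NP-40 vs SDS abundance): HeLa Kyoto cells arrested at G1/S by double thymidine block, proteins quantified by TMT10plex mass spectrometry in mild NP-40 versus SDS extracts, three biological replicates.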
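Throughout, for thermal stability score vs G1/S (z-score of summed log2 fold changes over temperatures): synchronized HeLa Kyoto cells, proteins quantified by TMT10plex mass spectrometry, three biological replicates, mitosis taken 0.5 h after nocodazole release, G1/S directly after double thymidine block.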

Substance | thermal stability score [1, 5] | thermal stability score ([1]; cell cycle stage: mitosis) | solubility in G1/S (log2) [2] | melting temperature ([3]; cell cycle stage: G1/S) [°C] | melting temperature ([3]; cell cycle stage: mitosis) [°C] | solubility change mitosis (log2) [4]
MDEMATTQISKDELDELKEAFAKVDLNSNGFICDYELHELFKEANMPLPGYKVREIIQKLMLDGDRNKDGKISFDEFVYIFQEVKSSDIAKTFRKAINRKEGICALGGTSELSSEGTQHSYSEEEKYAFVNWINKALENDPDCRHVIPMNPNTDDLFKAVGDGIVLCKMINLSVPDTIDERAINKKKLTPFIIQENLNLALNSASAIGCHVVNIGAEDLRAGKPHLVLGLLWQIIKIGLFADIELSRNEALAALLRDGETLEELMKLSPEELLLRWANFHLENSGWQKINNFSADIKDSKAYFHLLNQIAPKGQKEGEPRIDINMSGFNETDDLKRAESMLQQADKLGCRQFVTPADVVSGNPKLNLAFVANLFNKYPALTKPENQDIDWTLLEGETREERTFRNWMNSLGVNPHVNHLYADLQDALVILQLYERIKVPVDWSKVNKPPYPKLGANMKKLENCNYAVELGKHPAKFSLVGIGGQDLNDGNQTLTLALVWQLMRRYTLNVLEDLGDGQKANDDIIVNWVNRTLSEAGKSTSIQSFKDKTISSSLAVVDLIDAIQPGCINYDLVKSGNLTEDDKHNNAKYAVSMARRIGARVYALPEDLVEVKPKMVMTVFACLMGRGMKRV [PLS3] | 1.07 | 1.27 | 0.439 | 54.9 | 54.5 | 0.00363
MAAVVALSLRRRLPATTLGGACLQASRGAQTAAATAPRIKKFAIYRWDPDKAGDKPHMQTYEVDLNKCGPMVLDALIKIKNEVDSTLTFRRSCREGICGSCAMNINGGNTLACTRRIDTNLNKVSKIYPLPHMYVIKDLVPDLSNFYAQYKSIEPYLKKKDESQEGKQQYLQSIEEREKLDGLYECILCACCSTSCPSYWWNGDKYLGPAVLMQAYRWMIDSRDDFTEERLAKLQDPFSLYRCHTIMNCTRTCPKGLNPGKAIAEIKKMMATYKEKKASV [SDHB] | -1.86 | -2.8 | 0.659 | 54.7 | 56.3 | -0.00338
MSETVICSSRATVMLYDDGNKRWLPAGTGPQAFSRVQIYHNPTANSFRVVGRKMQPDQQVVINCAIVRGVKYNQATPNFHQWRDARQVWGLNFGSKEDAAQFAAGMASALEALEGGGPPPPPALPTWSVPNGPSPEEVEQQKRQQPGPSEHIERRVSNAGGPPAPPAGGPPPPPGPPPPPGPPPPPGLPPSGVPAAAHGAGGGPPPAPPLPAAQGPGGGGAGAPGLAAAIAGAKLRKVSKQEEASGGPTAPKAESGRSGGGGLMEEMNAMLARRRKATQVGEKTPKDESANQEEPEARVPAQSESVRRPWEKNSTTLPRMKSSSSVTTSETQPCTPSSSDYSDLQRVKQELLEEVKKELQKVKEEIIEAFVQELRKRGSP [VASP] | 0.605 | 2.18 | 0.466 | 49.7 | 50.4 | 0.0947
MAATAAEAVASGSGEPREEAGALGPAWDESQLRSYSFPTRPIPRLSQSDPRAEELIENEEPVVLTDTNLVYPALKWDLEYLQENIGNGDFSVYSASTHKFLYYDEKKMANFQNFKPRSNREEMKFHEFVEKLQDIQQRGGEERLYLQQTLNDTVGRKIVMDFLGFNWNWINKQQGKRGWGQLTSNLLLIGMEGNVTPAHYDEQQNFFAQIKGYKRCILFPPDQFECLYPYPVHHPCDRQSQVDFDNPDYERFPNFQNVVGYETVVGPGDVLYIPMYWWHHIESLLNGGITITVNFWYKGAPTPKRIEYPLKAHQKVAIMRNIEKMLGEALGNPQEVGPLLNTMIKGRYN [HIF1AN] | 0.637 | 1.68 | 0.273 | 52.3 | 51.7 | -0.0585
MTTSHQPQDRYKAVWLIFFMLGLGTLLPWNFFMTATQYFTNRLDMSQNVSLVTAELSKDAQASAAPAAPLPERNSLSAIFNNVMTLCAMLPLLLFTYLNSFLHQRIPQSVRILGSLVAILLVFLITAILVKVQLDALPFFVITMIKIVLINSFGAILQGSLFGLAGLLPASYTAPIMSGQGLAGFFASVAMICAIASGSELSESAFGYFITACAVIILTIICYLGLPRLEFYRYYQQLKLEGPGEQETKLDLISKGEEPRAGKEESGVSVSNSQPTNESHSIKAILKNISVLAFSVCFIFTITIGMFPAVTVEVKSSIAGSSTWERYFIPVSCFLTFNIFDWLGRSLTAVFMWPGKDSRWLPSLVLARLVFVPLLLLCNIKPRRYLTVVFEHDAWFIFFMAAFAFSNGYLASLCMCFGPKKVKPAEAETAGAIMAFFLCLGLALGAVFSFLFRAIV [SLC29A1] | 1.53 | 0.495 | -0.149 | 58.4 | 61.1 | -0.151
MLKQILSEMYIDPDLLAELSEEQKQILFFKMREEQIRRWKEREAAMERKESLPVKPRPKKENGKSVHWKLGADKEVWVWVMGEHHLDKPYDVLCNEIIAERARLKAEQEAEEPRKTHSEEFTNSLKTKSQYHDLQAPDNQQTKDIWKKVAEKEELEQGSRPAPTLEEEKIRSLSSSSRNIQQMLADSINRMKAYAFHQKKESMKKKQDEEINQIEEERTKQICKSWKEDSEWQASLRKSKAADEKRRSLAKQAREDYKRLSLGAQKGRGGERLQSPLRVPQKPERPPLPPKPQFLNSGAYPQKPLRNQGVVRTLSSSAQEDIIRWFKEEQLPLRAGYQKTSDTIAPWFHGILTLKKANELLLSTGMPGSFLIRVSERIKGYALSYLSEDGCKHFLIDASADAYSFLGVDQLQHATLADLVEYHKEEPITSLGKELLLYPCGQQDQLPDYLELFE [SH2D4A] | -0.202 | 0.42 | 0.308 | 49 | 49.5 | -0.0397
MSSSPVKRQRMESALDQLKQFTTVVADTGDFHAIDEYKPQDATTNPSLILAAAQMPAYQELVEEAIAYGRKLGGSQEDQIKNAIDKLFVLFGAEILKKIPGRVSTEVDARLSFDKDAMVARARRLIELYKEAGISKDRILIKLSSTWEGIQAGKELEEQHGIHCNMTLLFSFAQAVACAEAGVTLISPFVGRILDWHVANTDKKSYEPLEDPGVKSVTKIYNYYKKFSYKTIVMGASFRNTGEIKALAGCDFLTISPKLLGELLQDNAKLVPVLSAKAAQASDLEKIHLDEKSFRWLHNEDQMAVEKLSDGIRKFAADAVKLERMLTERMFNAENGK [TALDO1] | -7.63 | -3.31 | 0.572 | 54.4 | 52.5 | -0.00294
MADEALAGLDEGALRKLLEVTADLAERRRIRSAIRELQRQELEREEEALASKRFRAERQDNKENWLHSQQREAEQRAALARLAGQLESMNDVEELTALLRSAGEYEERKLIRAAIRRVRAQEIEAATLAGRLYSGRPNSGSREDSKGLAAHRLEQCEVPEREEQEQQAEVSKPTPTPEGTSQDVTTVTLLLRAPPGSTSSSPASPSSSPTPASPEPPLEPAEAQCLTAEVPGSPEPPPSPPKTTSPEPQESPTLPSTEGQVVNKLLSGPKETPAAQSPTRGPSDTKRADVAGPRPCQRSLSVLSPRQPAQNRESTPLASGPSSFQRAGSVRDRVHKFTSDSPMAARLQDGTPQAALSPLTPARLLGPSLTSTTPASSSSGSSSRGPSDTSSRFSKEQRGVAQPLAQLRSCPQEEGPRGRGLAARPLENRAGGPVARSEEPGAPLPVAVGTAEPGGSMKTTFTIEIKDGRGQASTGRVLLPTGNQRAELTLGLRAPPTLLSTSSGGKSTITRVNSPGTLARLGSVTHVTSFSHAPPSSRGGCSIKMEAEPAEPLAAAVEAANGAEQTRVNKAPEGRSPLSAEELMTIEDEGVLDKMLDQSTDFEERKLIRAALRELRQRKRDQRDKERERRLQEARGRPGEGRGNTATETTTRHSQRAADGSAVSTVTKTERLVHSNDGTRTARTTTVESSFVRRSENGSGSTMMQTKTFSSSSSSKKMGSIFDREDQASPRAGSLAALEKRQAEKKKELMKAQSLPKTSASQARKAMIEKLEKEGAAGSPGGPRAAVQRSTSFGVPNANSIKQMLLDWCRAKTRGYEHVDIQNFSSSWSDGMAFCALVHNFFPEAFDYGQLSPQNRRQNFEVAFSSAEMLVDCVPLVEVDDMMIMGKKPDPKCVFTYVQSLYNHLRRHELRLRGKNV [SMTN] | 0.326 | 0.869 | -0.058 | 48.9 | 50 | 0.208
MRECISIHVGQAGVQIGNACWELYCLEHGIQPDGQMPSDKTIGGGDDSFNTFFSETGAGKHVPRAVFVDLEPTVIDEVRTGTYRQLFHPEQLITGKEDAANNYARGHYTIGKEIIDLVLDRIRKLADQCTGLQGFLVFHSFGGGTGSGFTSLLMERLSVDYGKKSKLEFSIYPAPQVSTAVVEPYNSILTTHTTLEHSDCAFMVDNEAIYDICRRNLDIERPTYTNLNRLISQIVSSITASLRFDGALNVDLTEFQTNLVPYPRIHFPLATYAPVISAEKAYHEQLTVAEITNACFEPANQMVKCDPRHGKYMACCLLYRGDVVPKDVNAAIATIKTKRTIQFVDWCPTGFKVGINYQPPTVVPGGDLAKVQRAVCMLSNTTAVAEAWARLDHKFDLMYAKRAFVHWYVGEGMEEGEFSEAREDMAALEKDYEEVGADSADGEDEGEEY [TUBA1C] | 0.287 | -2.74 | 0.171 | 55.2 | 54.6 | -0.2
MGGRVFLAFCVWLTLPGAETQDSRGCARWCPQNSSCVNATACRCNPGFSSFSEIITTPTETCDDINECATPSKVSCGKFSDCWNTEGSYDCVCSPGYEPVSGAKTFKNESENTCQDVDECQQNPRLCKSYGTCVNTLGSYTCQCLPGFKFIPEDPKVCTDVNECTSGQNPCHSSTHCLNNVGSYQCRCRPGWQPIPGSPNGPNNTVCEDVDECSSGQHQCDSSTVCFNTVGSYSCRCRPGWKPRHGIPNNQKDTVCEDMTFSTWTPPPGVHSQTLSRFFDKVQDLGRDSKTSSAEVTIQNVIKLVDELMEAPGDVEALAPPVRHLIATQLLSNLEDIMRILAKSLPKGPFTYISPSNTELTLMIQERGDKNVTMGQSSARMKLNWAVAAGAEDPGPAVAGILSIQNMTTLLANASLNLHSKKQAELEEIYESSIRGVQLRRLSAVNSIFLSHNNTKELNSPILFAFSHLESSDGEAGRDPPAKDVMPGPRQELLCAFWKSDSDRGGHWATEGCQVLGSKNGSTTCQCSHLSSFAILMAHYDVEDWKLTLITRVGLALSLFCLLLCILTFLLVRPIQGSRTTIHLHLCICLFVGSTIFLAGIENEGGQVGLRCRLVAGLLHYCFLAAFCWMSLEGLELYFLVVRVFQGQGLSTRWLCLIGYGVPLLIVGVSAAIYSKGYGRPRYCWLDFEQGFLWSFLGPVTFIILCNAVIFVTTVWKLTQKFSEINPDMKKLKKARALTITAIAQLFLLGCTWVFGLFIFDDRSLVLTYVFTILNCLQGAFLYLLHCLLNKKVREEYRKWACLVAGGSKYSEFTSTTSGTGHNQTRALRASESGI [CD97] | 0.176 | -0.537 | 0.257 | 59.6 | 58.4 | -0.171
TPP2 | -1.14 | -1.13 | -0.0302 | 54.6 | 54.2 | -0.106
RB1CC1 | -0.0649 | 0.267 | -0.0448 | 51.4 | 50.2 | -0.219
MDRNPSPPPPGRDKEEEEEVAGGDCIGSTVYSKHWLFGVLSGLIQIVSPENTKSSSDDEEQLTELDEEMENEICRVWDMSMDEDVALFLQEFNAPDIFMGVLAKSKCPRLREICVGILGNMACFQEICVSISSDKNLGQVLLHCLYDSDPPTLLETSRLLLTCLSQAEVASVWVERIQEHPAIYDSICFIMSSSTNVDLLVKVGEVVDKLFDLDEKLMLEWVRNGAAQPLDQPQEESEEQPVFRLVPCILEAAKQVRSENPEWLDVYMHILQLLTTVDDGIQAIVHCPDTGKDIWNLLFDLVCHEFCQSDDPPIILQEQKTVLASVFSVLSAIYASQTEQEYLKIEKVDLPLIDSLIRVLQNMEQCQKKPENSAESNTEETKRTDLTQDDFHLKILKDILCEFLSNIFQALTKETVAQGVKEGQLSKQKCSSAFQNLLPFYSPVVEDFIKILREVDKALADDLEKNFPSLKVQT [SAAL1] | 0.137 | 0.212 | 0.294 | 52.3 | 50.6 | 0.00183
SRSF6 | -0.248 | -2.07 | -0.646 | 49.8 | 50.6 | 0.385
